# T1: PaxB_(1-30) (PaxB NDD), X. cabanillasii JM26 (Xenorhabdus cabanillasii JM26)
# T1 chain: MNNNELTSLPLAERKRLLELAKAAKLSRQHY
# B1: PaxA_(981-1084), T1-CDD di-domain construct (apo), X. cabanillasii JM26 (domain or fragment)
# chain: DHSSVITQEYAAPQGEIEEQLADIWQTILKIDRIGRYDNFFELGGHSLLVLQLQSRINEIFDVDISIQQLFAHPSICQLEECIINAQLLQFDADSLQDIYKSME
# B2: PaxA T1-CDD di-domain with the Ppant moiety (holo), X. cabanillasii JM26 (domain or fragment)
# chain: B1 chain
# modifications: phosphopantetheinyl (Ppant) arm attached to residue S1027
# B3: PaxA981–1084: X. cabanillasii PaxA T1-CDD di-domain (protein)
# chain: B1 chain
# What was measured:
# [1] = target: PaxA_(981-1084), T1-CDD di-domain construct (apo), X. cabanillasii JM26 (Xenorhabdus cabanillasii JM26) (UniProt W1J0W9); assay: ITC; PaxA construct titrated with the PaxB NDD peptide or its variant; n=3 for the variants
# [2] = target: PaxA_(986-1089), T1-CDD di-domain construct (apo), X. bovienii SS-2004 (Xenorhabdus bovienii SS-2004); assay: as above
# [3] = target: T1, PaxB_(1-30) (PaxB NDD), X. cabanillasii …; assay: ITC; replicate 3
# [4] = target: T1, PaxB_(1-30) (PaxB NDD), X. cabanillasii …; assay: ITC; replicate 1
# [5] = target: T1, PaxB_(1-30) (PaxB NDD), X. cabanillasii …; assay: ITC; apo, replicate 3
# [6] = target: T1, PaxB_(1-30) (PaxB NDD), X. cabanillasii …; assay: ITC; apo, replicate 1
# [7] = target: T1, PaxB_(1-30) (PaxB NDD), X. cabanillasii …; assay: ITC; holo (Ppant), replicate 3
# [8] = target: T1, PaxB_(1-30) (PaxB NDD), X. cabanillasii …; assay: ITC; holo (Ppant), mean of three replicates
# [9] = target: T1, PaxB_(1-30) (PaxB NDD), X. cabanillasii …; assay: ITC; holo (Ppant), replicate 2
# [10] = target: T1, PaxB_(1-30) (PaxB NDD), X. cabanillasii …; assay: ITC; holo (Ppant), replicate 1
# [11] = system: PaxB NDD; assay: ITC titration of X. cabanillasii PaxA constructs with PaxB NDD; format: binding, Xenorhabdus cabanillasii JM26; details: X. cabanillasii JM26, 20 °C, pH 6.5, one site model
# Description: Unfortunately, despite its very high affinity the complex between the PaxA T1‐^CDD di‐domain construct and the PaxB ^NDD peptide from the PaxS NRPS from X. bovienii SS‐2004 was not suitable for a full structure determination. The closely related species Xenorhabdus cabanillasii JM26 also contains the PaxS NRPS with PaxA and PaxB (Figure S4). […] The affinity of this interaction was not modulated by the presence of the Ppant moiety in the PaxA T1 domain (Figure S7). […] Thus, the interaction between PaxA and PaxB from the PaxS NRPS of X. cabanillasii has biophysical properties very similar to the one from the X. bovienii system and was amenable to a full structural characterization by NMR spectroscopy.
# England BioLabs) approach following the manufacturer`s instructions.
# Protein expression and purification […]
# interactions, proteins from Xenorhabdus cabanillasii and Xenorhabdus bovienii were […]
# BAP1 under the control of a T7 promoter. All proteins of interest were expressed as SUMO […]
# concentration measurements upon cleavage with Ulp protease. All constructs containing the […]
# measurements, proteins were expressed in LB medium. Protein expression was induced at an […]
# After expression, cells were lysed by […]
# spectrometers equipped with cryogenic 5 mm triple resonance probes. The proton chemical […]
# mercaptoethanol and 5 % D2O. Sequential assignments of backbone amide signals and […]
molecule,measurement,setting,value
"PaxB NDD P10L variant, X. cabanillasii JM26 (domain or fragment)",Kd,[1],3900 nM
"PaxB_(1-30) (PaxB NDD), X. cabanillasii JM26 (domain or fragment)",Kd,[1],248 nM
same,stoichiometry N,[1],0.88
"PaxB NDD K22E mutant, X. cabanillasii JM26 (domain or fragment)",Kd,[1],3800 nM
"PaxB NDD R16E mutant, X. cabanillasii JM26 (domain or fragment)",Kd,[1],2800 nM
"PaxB_(1-36) (PaxB NDD), X. bovienii SS-2004 (domain or fragment)",Kd,[2],201 nM
same,stoichiometry N,[2],0.74
B1,Kd,[3],224 nM
same,Kd,[4],267 nM
same,Kd,[5],224 nM
same,Kd,[6],267 nM
B2,Kd,[7],192 nM
same,Kd,[8],220 nM
same,Kd,[9],220 nM
same,Kd,[10],248 nM
B3,n (binding stoichiometry),[11],0.88±0.01 sites

# Reference: publication PMC8251938, “Cooperation between a T Domain and a Minimal C‐Terminal Docking Domain to Enable Specific Assembly in a Multiprotein NRPS” (Angewandte Chemie (International Ed. in English), 2021)
